# Measurements as given in IntAct's records for PubMed 22000520.
# B1: Serine/threonine-protein kinase PknB (Mycobacterium tuberculosis (strain ATCC 25618 / P9WI81 (parent)
# chain: MTTPSHLSDRYELGEILGFGGMSEVHLARDLRLHRDVAVKVLRADLARDPSFYLRFRREAQNAAALNHPAIVAVYDTGEAETPAGPLPYIVMEYVDGVTLRDIVHTEGPMTPKRAIEVIADACQALNFSHQNGIIHRDVKPANIMISATNAVKVMDFGIARAIADSGNSVTQTAAVIGTAQYLSPEQARGDSVDARSDVYSLGCVLYEVLTGEPPFTGDSPVSVAYQHVREDPIPPSARHEGLSADLDAVVLKALAKNPENRYQTAAEMRADLVRVHNGEPPEAPKVLTDAERTSLLSSAAGNLSGPRTDPLPRQDLDDTDRDRSIGSVGRWVAVVAVLAVLTVVVTIAINTFGGITRDVQVPDVRGQSSADAIATLQNRGFKIRTLQKPDSTIPPDHVIGTDPAANTSVSAGDEITVNVSTGPEQREIPDVSTLTYAEAVKKLTAAGFGRFKQANSPSTPELVGKVIGTNPPANQTSAITNVVIIIVGSGPATKDIPDVAGQTVDVAQKNLNVYGFTKFSQASVDSPRPAGEVTGTNPPAGTTVPVDSVIELQVSKGNQFVMPDLSGMFWVDAEPRLRALGWTGMLDKGADVDAGGSQHNRVVYQNPPAGTGVNRDGIITLRFGQ
# partner: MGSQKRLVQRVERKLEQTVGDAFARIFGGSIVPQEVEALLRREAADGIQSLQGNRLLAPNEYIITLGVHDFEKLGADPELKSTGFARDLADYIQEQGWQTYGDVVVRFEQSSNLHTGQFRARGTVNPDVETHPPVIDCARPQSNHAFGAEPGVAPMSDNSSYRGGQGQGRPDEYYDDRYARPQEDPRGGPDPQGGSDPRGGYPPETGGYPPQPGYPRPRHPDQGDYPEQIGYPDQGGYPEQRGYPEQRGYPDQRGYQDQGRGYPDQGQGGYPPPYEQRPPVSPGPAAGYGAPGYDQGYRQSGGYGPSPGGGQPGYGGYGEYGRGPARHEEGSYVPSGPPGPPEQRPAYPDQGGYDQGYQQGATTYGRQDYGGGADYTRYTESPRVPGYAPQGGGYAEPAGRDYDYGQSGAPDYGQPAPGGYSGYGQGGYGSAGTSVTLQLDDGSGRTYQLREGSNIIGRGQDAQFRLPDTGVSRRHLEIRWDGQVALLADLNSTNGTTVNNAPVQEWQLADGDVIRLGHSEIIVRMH
# B2: FHA domain-containing protein FhaA (Mycobacterium tuberculosis (strain ATCC 25618 / P71590 (parent)
# chain: B1 partner
# partner: B1 chain
# Variants of: B1
# Conditions: with fhaa_myctu fhaA
row,Variant,effect of a mutation on the interaction
1,T294A,increasing interaction
2,T309A,increasing interaction

# Variants of: B2
# Conditions: with pknb_myctu pknB
row,Variant,effect of a mutation on the interaction
1,T116A,disrupting interaction
